Assays:
NusA-HuR [1] = target: T1, NusA-HuR (UniProt Q15717 1-326); assay: EMSA; 0-3 uM HuR, 100 nM RNA; EMSA: 50 mM Tris pH 7.5, 50 mM KCl, 37 C, 1 h, 100 nM 32P-RNA; 7% native PAGE in 40 mM Tris-acetate pH 8.0, 1 mM EDTA, room temperature; details: protein: recombinant; tags: N-terminal NusA fusion, TEV site ENLYFQS; Ni-NTA purified; label: 32P
NusA-HuR [2] = target: T1, NusA-HuR; assay: EMSA; EMSA: 50 mM Tris pH 7.5, 50 mM KCl, 37 C, 1 h, 100 nM 32P-RNA; 7% native PAGE in 40 mM Tris-acetate pH 8.0, 1 mM EDTA, room temperature; details: protein: recombinant; tags: N-terminal NusA fusion, TEV site ENLYFQS; Ni-NTA purified; label: 32P; RNA template with annealed primer

T1 sequence (Q15717 whole entry, the tested form may be a part): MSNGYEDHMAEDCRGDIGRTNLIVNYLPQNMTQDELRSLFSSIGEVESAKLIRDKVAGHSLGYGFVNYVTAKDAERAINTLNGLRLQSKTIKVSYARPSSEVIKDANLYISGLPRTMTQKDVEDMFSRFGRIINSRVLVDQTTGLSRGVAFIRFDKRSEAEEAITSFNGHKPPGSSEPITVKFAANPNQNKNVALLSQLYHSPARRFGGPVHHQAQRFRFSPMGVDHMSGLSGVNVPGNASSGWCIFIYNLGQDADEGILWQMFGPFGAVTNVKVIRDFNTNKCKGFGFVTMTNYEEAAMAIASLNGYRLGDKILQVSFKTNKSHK

B1: ARE-containing synthetic ssRNA (Fig. 2C) (ssRNA)
RNA: UCAGAUAUUUAUAUUUUUAUUUUAUUUUUUUCUACCUUGAGGUCUUUUGA
binding result (NusA-HuR [1]): binds

B2: ARE-containing template/primer (Fig. 4B) (mixed)
RNA: B1 RNA
DNA: CACTAGTCAAAAGACCTC
binding result (NusA-HuR [2]): binds
